Test results: US20180142030A1 (Bristol-Myers Squibb, published 2018)
Residue numbers refer to the chain shown, from its start. Numbers in names are those of the source.

B1: 5G7-25 (antibody, human IgG1, kappa, V domains shown)
VH: QVQLVQSGAEVKKPGASVKVSCKASGYTFTDYNMDWVRQAPGQGLEWMGDINPKNAGTIYNLKFKGRVTLTVDTSTSTAYMELRSLRSDDTAVYYCVRRMDYWGQGTTVTVSS
VL: DIQMTQSPSSLSASVGDRVTITCRASQDISNYLNWYQQKPGKVPKLLIYYISRLHSGVPSRFSGSGSGTDFTLTISSLQPEDVATYYCQQGNTLPYTFGGGTKVEIKR
notes: Humanized; IgG1f
B2: 5G7-28 (antibody, human IgG1, kappa, name in Kabat numbering, V domains shown)
VH: B1 VH with M100L
VL: B1 VL
B3: 5G7-22 (antibody, human IgG1, kappa, V domains shown)
VH: B1 VH with A56G, V72T
VL: B1 VL
notes: Humanized; IgG1f
B4: 12D6 (parental) (antibody, V domains shown)
VH: EVQLQQSGPELEKPGASVKMSCKASGYSFTGYNMNWVKQSNGKSLEWIGNIDPYYGNTNYNQKFKGKATLTVDKSSSTAYLQLKSLTSEDSAVYYCARLGLQLYAMDYWGQGTSVTVSS
VL: DVVMTQTPLSLPVSLGDQASISCRSSQSLVHSNGNTYLHWYLQKPGQSPNLLIYKLTNRFFGVPDRFSGSGSGTDFTLKISRVEAEDLGVYFCSQSIHVPWTFGGGTKLEIK
notes: Mouse variable domains; also called 1802.3716.12D6.B1.E3; mAb 12D6
B5: 8E8 (parental) (antibody, V domains shown)
VH: QVQFQQSGAELARPGASVKLSCKASGYTFTSYWMQWVKQRPGQGLEWIGTIYPGDGDSRYNQKFKGKALLTADKSSSIAYMQLNSLASEDSAVYFCARFSLYDGYPYYFDYWGQGTTLTVSS
VL: B4 VL with S32R, N50K, K55R, L56V, T57S, F61S, V90I, I97T, V99F, W101Y
notes: Mouse variable domains; also called 1802.3583.8E8.C10.G2; mAb 8E8
B6: 12D6-03 (antibody, human IgG1, kappa, V domains shown)
VH: QVQLVQSGAEVKKPGASVKVSCKASGYTFTGYNMNWVRQAPGQGLEWMGNIDPYYGNTNYNQKFKGRVTMTTDTSTSTAYMELRSLRSDDTAVYYCARLGLQLYAMDYWGQGTTVTVSS
VL: DIVMTQTPLSLPVTPGEPASISCRSSQSLVHSNGNTYLHWYLQKPGQSPQLLIYKLTNRFFGVPDRFSGSGSGTDFTLKISRVEAEDVGVYYCSQSIHVPWTFGGGTKVEIKR
notes: Humanized
B7: 19G3-11 (antibody, human IgG1, kappa, V domains shown)
VH: EVQLVESGGGLVKPGGSLRLSCAASGFTFSSYAMSWVRQAPGKGLEWVSEISGGGSYTYYPDTVTGRFTISRDNAKNSLYLQMNSLRAEDTAVYYCASRAYWGQGTLVTVSS
VL: B6 VL with L29I, L38F, H39E, L56V, T57S, F61S, S94F, S96G, I97S, W101Y
notes: Humanized; IgG1f
B8: 8E8-62 (antibody, human IgG1, kappa, V domains shown)
VH: QVQFVQSGAEVKKPGSSVKVSCKASGYTFTSYWMQWVRQAPGQGLEWMGTIYPGDGDSRYNQKFKGKALLTADKSTSTAYMELSSLRSEDTAVYYCARFSLYEGYPYYFDYWGQGTTVTVSS
VL: B6 VL with T7S, S32R, K55R, L56V, T57S, F61S, I97T, V99F, W101Y
notes: Humanized; IgG1f
B9: 19G3-22 (antibody, human IgG1, kappa, V domains shown)
VH: B7 VH
VL: DIVMTQTPLSLPVTPGEPASISCRSSQSIVHSQGNTYFEWYLQKPGQSPQLLIYKVSNRFSGVPDRFSGSGSGTDFTLKISRVEAEDVGVYYCFQGSHVPYTFGGGTKVEIKR
notes: Humanized; IgG1f
B10: 8E8-71 (antibody, human IgG1, kappa, V domains shown)
VH: B8 VH with G56S
VL: B6 VL with T7S, S32R, G34A, K55R, L56V, T57S, F61S, I97T, V99F, W101Y
notes: Humanized; IgG1f
B11: 12D6-23 (antibody, human IgG1, kappa, V domains shown)
VH: B6 VH with M106L
VL: B6 VL
notes: Humanized; IgG1f
B12: 12D6-22 (antibody, human IgG1, kappa, V domains shown)
VH: B6 VH
VL: B6 VL with G34A
notes: Humanized; IgG1f
B13: 8E8-66 (antibody, human IgG1, kappa, V domains shown)
VH: B8 VH with E103D
VL: B6 VL with T7S, S32R, G34A, K55R, L56V, T57S, F61S, I97T, V99F, W101Y
B14: 19G3-23 (antibody, human IgG1, kappa, name in Kabat numbering, V domains shown)
VH: B7 VH
VL: B9 VL with Q33N, G34A
notes: Heavy chain inferred from the identical VH description (VH3-21 S94R) of 19G3-11; Light chain is the VKII O11 CDR graft of 19G3-11 with G29A
B15: 8E8-67 (antibody, human IgG1, kappa, V domains shown)
VH: B8 VH
VL: B6 VL with T7S, S32R, G34A, K55R, L56V, T57S, F61S, I97T, V99F, W101Y
notes: Humanized; IgG1f
B16: 8E8-56 (antibody, human IgG1, kappa, V domains shown)
VH: B8 VH with E103D
VL: B6 VL with T7S, S32R, K55R, L56V, T57S, F61S, I97T, V99F, W101Y
notes: Humanized; IgG1f
B17: 8E8-70 (antibody, human IgG1, kappa, V domains shown)
VH: B8 VH with G56S
VL: B6 VL with T7S, S32R, K55R, L56V, T57S, F61S, I97T, V99F, W101Y
notes: Humanized; IgG1f
B18: 12D6-24 (antibody, human IgG1, kappa)
heavy: not shown
light: DIVMTQTPLSLPVTPGEPASISCRSSQSLVHSNANTYLHWYLQKPGQSPQLLIYKLTNRFFGVPDRFSGSGSGTDFTLKISRVEAEDVGVYYCSQSIHVPWTFGGGTKVEIKRTVAAPSVFIFPPSDEQLKSGTASVVCLLNNFYPREAKVQWKVDNALQSGNSQESVTEQDSKDSTYSLSSTLTLSKADYEKHKVYACEVTHQGLSSPVTKSFNRGEC
notes: Humanized; IgG1f; also called 12D6-24 IgG1f; mAb 12D6-24 human IgG1f (control)
B19: 5F11-17 (antibody, human IgG1, kappa)
heavy: not shown
light: DIVMTQSPDSLAVSLGERATINCRASKNVDSYGNSFMHWYQQKPGQPPKLLIYRASNLESGVPDRFSGSGSGTDFTLTISSLQAEDVAVYYCQQSNEDPLTFGQGTKLEIKRTVAAPSVFIFPPSDEQLKSGTASVVCLLNNFYPREAKVQWKVDNALQSGNSQESVTEQDSKDSTYSLSSTLTLSKADYEKHKVYACEVTHQGLSSPVTKSFNRGEC
notes: Humanized; IgG1f
B20: 5F11-45 (antibody, human IgG1, kappa)
heavy: not shown
light: B19 light with M4L
notes: Humanized; IgG1f
B21: 5F11-23 (antibody, human IgG1, kappa)
heavy: not shown
light: B19 light with M4L, N22S
notes: Humanized; IgG1f
B22: 5G7 (parental) (antibody, V domains shown)
VH: EVLLQQSGPELVKPGASVKIPCKASGYKFTDYNMDWVKQSHGKSLEWIGDINPKNGGTIYNLKFKGKATLTVDMSSSTAYMELRSLTSEDTAVYYCVRRMDYWGQGTSVTVSS
VL: DIQMTQTTSSLSASLGDRVTISCRASQDISNYLNWYQQKPDGTVKLLIYYISRLHSGVPSRFRGSGSGTDFSLTISNLEQEDIATYFCQQGNTLPYTFGGGTNLEIK
notes: Mouse variable domains; also called 1802.3583.5G7.F12.G3; mAb 5G7
B23: 19G3 (parental) (antibody, V domains shown)
VH: EVQLVESGGGLVKPGGSLKLSCAASGFTFSSYAMSWVRQSPEKRLEWVAEISGGGSYTYYPDTVTGRFTISRDNAKNTLYLEMSSLRSEDTAMYYCASRAYWGQGTLVTVSA
VL: DVLMTQTPLSLPVSLGDQASISCRSSQSIVHSNGNTYFEWYLQKPGQSPKLLIYKVSNRFSGVPDRFSGSGSGTDFTLKISRVEAEDLGVYYCFQGSHVPYTFGGGTKLEIK
notes: Mouse variable domains; also called 1802.3582.19G3.F10.E1; mAb 19G3

What follows are binders tested against T1, recombinant human CD40 monomer (human, UniProt P25942 21-193) (assay: BLI (Octet RED); antibody supernatant captured on protein A sensors, huCD40-monomer in solution).
T1 construct: also called huCD40-monomer; soluble human CD40
T1 sequence (P25942 21-193 limits assumed): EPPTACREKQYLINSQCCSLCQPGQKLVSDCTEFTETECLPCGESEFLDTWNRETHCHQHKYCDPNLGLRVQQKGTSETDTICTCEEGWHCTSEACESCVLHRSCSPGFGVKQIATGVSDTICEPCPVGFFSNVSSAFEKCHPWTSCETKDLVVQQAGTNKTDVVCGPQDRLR
From the text: The closest matching human germline region sequence was selected for each mouse variable domain, and these human framework regions were used to replace murine frameworks in the “CDR graft” versions of the antibodies. Additional amino acid substitutions, such as framework back-mutations, were then made as necessary to restore the binding affinity of the humanized antibody. Further amino acid substitutions were made to eliminate sequence liabilities. The sequence relationships between the various forms of the antibodies of the present invention are provided at Table 6. The binding of various agonistic anti-huCD40 antibodies to soluble human CD40 was determined by Biolayer Interferometry (BLI) analysis using a Fortebio Octet RED (Rapid system—Extended Detection) label-free interaction analysis instrument. All studies were performed in 10 mM NaₓPO₄, 130 mM NaCl, 0.05% Surfactant P20 (pH 7.1) at 25° C. Briefly, anti-huCD40 antibody supernatants (diluted to 10 μg/ml or captured undiluted if supernatant concentration was less than 10 μg/ml) were captured on protein A coated biosensors (Pall Fortebio #18-5010) using a loading time of 90 s and shake speed of 1000 rpm. Supernatants were first screened for binding to 1 μM recombinant human CD40 monomer (huCD40-monomer) using 180 s association and dissociation times, at 1000 rpm, with two 15 s conditioning steps using 10 mM glycine pH 1.5 in between binding cycles.
B1 was tested, and the Kd was 69 nM.
B2 showed a Kd of 230 nM.
Binder B3 has a Kd of 50 nM.
B4 gave a Kd of 3.6 nM.
B5 was tested, and the Kd was 85 nM.
In the case of B6, the Kd is reported as 4.8 nM.
In the case of B7, the Kd is reported as 850 nM.
With B8 the Kd was 31 nM.
Work on B9 yielded a Kd of 99 nM.
B10: binds.
B11 was tested, and the Kd was 4.3 nM.
Work on B12 yielded a Kd of 3.6 nM.
In the case of B13, the Kd is reported as 82 nM.
In the case of B14, the Kd is reported as 1300 nM.
B15 gave a Kd of 28 nM.
In the case of B16, the Kd is reported as 82 nM.
B17: binds.
For B18, the Kd was 5.6 nM.
B19 showed a Kd of 8.4 nM.
In the case of B20, the Kd is reported as 12.3 nM.
Work on B21 yielded a Kd of 4.9 nM.
B22 gave a Kd of 89 nM.
B23 gave a Kd of 870 nM.
